WO2009041734A1 (dated 2009)
Blank lines part the entries; values can stand above or below the binder they belong to.

Key:
[1] = biological target: T1, human thrombopoietin receptor (human c-Mpl) (human, UniProt P40238 26-635); assay: cell-based or functional assay
T1 sequence (looked up): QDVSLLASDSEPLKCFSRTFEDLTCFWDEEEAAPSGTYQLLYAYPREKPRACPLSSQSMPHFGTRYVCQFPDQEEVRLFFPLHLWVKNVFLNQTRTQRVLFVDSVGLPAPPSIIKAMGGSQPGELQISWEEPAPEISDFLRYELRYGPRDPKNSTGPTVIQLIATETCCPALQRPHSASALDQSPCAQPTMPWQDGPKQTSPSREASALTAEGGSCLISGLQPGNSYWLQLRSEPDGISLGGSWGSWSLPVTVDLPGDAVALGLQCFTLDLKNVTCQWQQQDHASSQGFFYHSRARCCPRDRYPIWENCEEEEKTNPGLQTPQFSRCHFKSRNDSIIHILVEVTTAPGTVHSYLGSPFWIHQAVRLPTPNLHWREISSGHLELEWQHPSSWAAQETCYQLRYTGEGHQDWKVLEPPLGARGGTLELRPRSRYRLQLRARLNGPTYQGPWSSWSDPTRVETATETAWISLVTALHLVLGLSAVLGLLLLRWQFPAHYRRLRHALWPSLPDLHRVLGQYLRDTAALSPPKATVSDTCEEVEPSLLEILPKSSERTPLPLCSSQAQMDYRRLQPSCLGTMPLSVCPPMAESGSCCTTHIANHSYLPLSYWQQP

[2] = biological target: T1, human thrombopoietin receptor (human …); assay: flow cytometry on FM3A-hMpl cells, antibody at 1, 0.1, 0.01 ug/mL

B3: anti-human c-Mpl agonist antibody 7-10 (IgG1) (antibody, V domains shown)
VH: EVQLVESGGGLVQPGRSLRLSCAASGFTFDDYAMHWVRQAPGKGLEWVSGISWNSGSIGYADSVKGRFTISRDNAKNSLYLQMNSLRAEDTALYYCAKNLWFGEFRYWYFDLWGRGTLVTVSS
VL: AIQLTQSPSSLSASVGDRVTITCRASQGISSALAWYQQKPGKAPKLLIYDASSLESGVPSRFSGSGSGTDFTLTISSLQPEDFATYYCQQFNSYPLTFGGGTKVEIK
UT7/TPO (Max), maximum activity relative to PEG-rHuMGDF [1]: > 90%

B4: 7-10G4344uhm light chain mutant 7-10VL_Y94F (antibody, V domains shown)
VH: EVQLVESGGGLVQPGRSLRLSCAASGFTFDDYAMHWVRQAPGKGLEWVSGISWNSGSIGYADSVKGRFTISRDNAKNSLYLQMNSLRAEDTALYYCAKNLWFGEFRYWYFDLWGRGTLVTVSS
VL: AIQLTQSPSSLSASVGDRVTITCRASQGISSALAWYQQKPGKAPKLLIYDASSLESGVPSRFSGSGSGTDFTLTISSLQPEDFATYYCQQFNSFPLTFGGGTKVEIK
agonist activity relative to 7-10G4344uhm, UT-7/TPO cell proliferation assay [1]: ~0.1 fold of 7-10G4344uhm | binding activity relative to 7-10G4344uhm [2]: ~0.1 fold of 7-10G4344uhm

B5: anti-human c-Mpl agonist antibody 6-5-2 (IgG1) (antibody, V domains shown)
VH: EVQLVECGGGLVQPGRSLRLSCAASGFTFDDYAMHWVRQAPGKGLEWVSGISWNSGSIGYADSVKGRFTISRDNAKNSLYLQMNSLRAEDTALYYCAKPIWFGEWGNYYGMDVWGQGTTVTVSS
VL: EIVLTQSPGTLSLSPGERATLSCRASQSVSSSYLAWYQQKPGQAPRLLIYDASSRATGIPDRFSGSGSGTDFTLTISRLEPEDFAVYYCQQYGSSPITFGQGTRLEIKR
UT7/TPO (Max), maximum activity relative to PEG-rHuMGDF [1]: > 50%

Second part, the binder after the results:

UT7/TPO (Max), maximum activity relative to PEG-rHuMGDF [1]: > 80%
B1: anti-human c-Mpl agonist antibody 4-49 (IgG1) (antibody, V domains shown)
VH: EEQLVESGGGLVQPGRSLRLSCTASGFTFDDYAMYWVRQVPGKGLEWVSGISWNSGSIGYADSVKGRFTVSRDNAKNSLYLQMNSLRAEDTALYYCAKALWFGEFPHYYGMDVWGQGTTVTVSS
VL: AIQLTQSPSSLSASVGDRVTITCRASQGISSTLAWYQQKPGKAPKLLIYDASSLESGVPSRFSGSGSGTDFTLTISSLQPEDFATYYCQQFNSYPYTFGQGTKLEIKR

UT7/TPO (Max), maximum activity relative to PEG-rHuMGDF [1]: > 80%
B2: anti-human c-Mpl agonist antibody 6-4-50 (IgG1) (antibody, V domains shown)
VH: EVQLVESGGGLVQPGRSLRLSCATSGFTFDNYAMYWVRQAPGKGLEWVSGISWNSGDIGYADSVKGRFTISRDNAKNSLYLQMNSLRAEDTALYYCARDAGFGEFHYGLDVWGQGTTVTVSS
VL: AIQLTQSPSSLSASVGDRVTITCRASQGISSALAWYQQKPGKVPKLLIYDASSLESGVPSRFSGSGSGTDFTLTISSLQPEDFATYYCQQFNSYPWTFGQGTKVEIKR
